For the data set, the target named is streptavidin (Streptomyces avidinii, UniProt P22629 25-183). Kind of data set: SPR; binding through the 3'-biotin, not the DNA sequence; 10 uM BiotinDNA in water gave about 90 RU; about 70 RU lost on displacement by free biotin (0.01-10.24 mM); SPR: 10 uM BiotinDNA in water, 10 uL/min, immobilized streptavidin; displacement by free biotin in water; temperature and pH not given. The following applies: protein: commercial; chain copies: 4; single strand. A general note: Surface plasmon resonance follows binding to a sensor surface in real time, without labels.
Chain of streptavidin (P22629 25-183): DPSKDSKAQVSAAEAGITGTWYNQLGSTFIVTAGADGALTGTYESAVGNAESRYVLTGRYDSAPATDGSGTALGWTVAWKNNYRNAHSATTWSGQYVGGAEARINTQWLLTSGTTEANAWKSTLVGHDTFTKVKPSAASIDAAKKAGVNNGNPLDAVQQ

For AGCAGCCTAAG (ssDNA, 3'-biotin) [BiotinDNA], the binding result is “binds”.
